We go through one substance from article PMC9281127.

This assay has as its target His-tagged PD-L1 (programmed death-ligand 1) (UniProt Q9NZQ7). In words: co-immunoprecipitation (IP: His, IB: Flag). As to conditions: co-transfected plasmids, parent: 1.0.
UniProt Q9NZQ7, sequence (Q9NZQ7 19-290): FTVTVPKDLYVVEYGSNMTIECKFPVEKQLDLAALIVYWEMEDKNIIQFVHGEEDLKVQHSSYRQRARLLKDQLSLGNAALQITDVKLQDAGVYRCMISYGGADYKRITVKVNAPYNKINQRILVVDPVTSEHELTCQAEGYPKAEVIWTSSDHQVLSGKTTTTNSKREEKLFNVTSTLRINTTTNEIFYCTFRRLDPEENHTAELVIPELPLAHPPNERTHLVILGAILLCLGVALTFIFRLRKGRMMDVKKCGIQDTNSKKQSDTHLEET

As to “Flag-tagged ZG16 (zymogen granule protein 16) (from UniProt O60844) K36A; R37A; K79A; R53A; R55A”, the ratio to parent was 0.6 (HCT116 cells) and 0.5 (SW480 cells).
